Data reported in patent US20240352133A1.
Positions count from the first letter of the chain named. Blank lines part the entries; values can stand above or below the binder they belong to.

Molecular target: Recombinant human his-tagged IGF 1R extracellular domain protein (human) (UniProt P08069)
Experiment: SPR, captured antibody, pH 7.4

B1: VRDN-03089 (antibody, V domains shown)
VH: QVQLVESGGGVVQPGRSLRLSCAASGFTFSSYGMHWVRQAPGKGLEWVAIIWFDGSSTYYADSVRGRFTISRDNSKNTLYLQMNSLRAEDTAVYYCARELGRRYFDLWGRGTLVTVSS
VL: EIVLTQSPATLSLSPGERATLSCRASQSVSSSYLAWYQQKPGQAPRLLIYDASKRATGIPARFSGSGSGTDFTLTISSLEPEDFAVYYCQQRSKWPPWTFGQGTKVEIK
Kd: 236 nM
koff: 0.0173 s⁻¹
kon: 73300 M⁻¹ s⁻¹

B2: VRDN-03122 (antibody, V domains shown)
VH: B1 VH with Q1E, G33S, I50V, F53Y, T58K, R65K, G66S, L107I, R110Q
VL: EIVMTQSPATLSVSPGERATLSCRASQGVSSYLAWYQQKPGQAPRLLIYGASTRATGIPARFSGSGSGTEFTLTISSLQSEDFAVYYCQQRSRWPPWTFGQGTKLEIK
Kd: 4.09 nM
koff: 0.000455 s⁻¹
kon: 111000 M⁻¹ s⁻¹

B7: VRDN-03126 (antibody, V domains shown)
VH: B1 VH with Q1E, S30D, S31D, G33T, I50V, F53Y, T58K, R65K, L107I, R110Q
VL: B2 VL
Kd: 8.7 nM
koff: 0.00297 s⁻¹
kon: 341000 M⁻¹ s⁻¹

B8: VRDN-03091 (antibody, V domains shown)
VH: B1 VH
VL: B1 VL with R24G
Kd: 11 nM
koff: 0.00902 s⁻¹
kon: 819000 M⁻¹ s⁻¹

B9: VRDN-03116 (antibody, V domains shown)
VH: B1 VH with Q1E, S31D, G33T, T58K, A61P, D62G, R65K, L107I
VL: B2 VL
Kd: 4.3 nM
koff: 0.00091 s⁻¹
kon: 212000 M⁻¹ s⁻¹

B10: VRDN-03117 (antibody, V domains shown)
VH: B1 VH with Q1E, G33S, S57N, T58K, R65K, G66S, L107I, R110Q
VL: B2 VL
Kd: 8.1 nM
koff: 0.00391 s⁻¹
kon: 483000 M⁻¹ s⁻¹

B11: VRDN-03119 (antibody, V domains shown)
VH: B1 VH with Q1E, G33S, S57E, T58K, A61V, R65K, G66S, L107I, R110Q
VL: B2 VL
Kd: 9.78 nM
koff: 0.00153 s⁻¹
kon: 157000 M⁻¹ s⁻¹

B12: VRDN-03125 (antibody, V domains shown)
VH: B1 VH with Q1E, S30D, S31D, G33A, I50V, F53Y, T58K, R65K, L107I, R110Q
VL: B2 VL
Kd: 8.61 nM
koff: 0.00292 s⁻¹
kon: 339000 M⁻¹ s⁻¹

B14: VRDN-03121 (antibody, V domains shown)
VH: B1 VH with Q1E, G33S, I50V, F53Y, T58K, R65K, G66S, L107I
VL: B2 VL
Kd: 4.27 nM
koff: 0.000486 s⁻¹
kon: 114000 M⁻¹ s⁻¹

Binders with a lower Kd, results first:

Kd: 3.96 nM
koff: 0.00128 s⁻¹
kon: 322000 M⁻¹ s⁻¹
B13: VRDN-03120 (antibody, V domains shown)
VH: B1 VH with Q1E, G33S, I50V, F53Y, T58K, R65K, L107I, R110Q
VL: B2 VL

Kd: 1.84 nM
koff: 0.000157 s⁻¹
kon: 85200 M⁻¹ s⁻¹
B6: VRDN-03124 (antibody, V domains shown)
VH: B1 VH with Q1E, S30D, S31D, G33T, T58K, R65K, L107I, R110Q
VL: B2 VL

Kd: 1.43 nM
koff: 9.19e-05 s⁻¹
kon: 64200 M⁻¹ s⁻¹
B5: VRDN-03123 (antibody, V domains shown)
VH: B1 VH with Q1E, S30D, S31D, G33A, T58K, R65K, L107I, R110Q
VL: B2 VL

Kd: 1.08 nM
koff: 0.000107 s⁻¹
kon: 98600 M⁻¹ s⁻¹
B4: VRDN-03118 (antibody, V domains shown)
VH: B1 VH with Q1E, G33S, T58K, A61V, R65K, G66S, L107I, R110Q
VL: B2 VL

Kd: 0.573 nM
koff: 7.48e-05 s⁻¹
kon: 131000 M⁻¹ s⁻¹
B3: VRDN-03127 (antibody, V domains shown)
VH: B1 VH with Q1E, S31D, G33T, T58K, R65K, G66S, L107I, R110Q
VL: B2 VL
